Results as given in patent US20190367613A1 (JOUNCE THERAPEUTICS, published 2019).

T1: Human ICOS (human, UniProt Q9Y6W8 21-199)
T1 sequence: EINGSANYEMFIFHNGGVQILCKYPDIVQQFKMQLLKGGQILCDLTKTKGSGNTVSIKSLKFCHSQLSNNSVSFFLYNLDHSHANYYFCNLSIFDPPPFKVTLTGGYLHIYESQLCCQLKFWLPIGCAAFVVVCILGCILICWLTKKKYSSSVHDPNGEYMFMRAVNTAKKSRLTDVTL


Columns and labels:
Human ICOS [1] = target: T1, Human ICOS; assay: cell-based or functional assay
Human ICOS [2] = target: T1, Human ICOS; assay: intracellular flow cytometry on permeabilized human PBMCs, streptavidin PE detection

Binder | intracellular IFNγ production in CD4+ T cells (flow cytometry, after tetanus toxoid stimulation) (Human ICOS [1]) [fold] | intracellular TNFα production in CD4+ T cells (flow cytometry, after tetanus toxoid stimulation) (Human ICOS [1]) [fold] | binding result (Human ICOS [2])
JTX-2011 (antibody, V domains shown) VH: EVQLVESGGGLVQPGGSLRLSCAASGFTFSDYWMDWVRQAPGKGLVWVSNIDEDGSITEYSPFVKGRFTISRDNAKNTLYLQMNSLRAEDTAVYYCTRWGRFGFDSWGQGTLVTVSS VL: DIVMTQSPDSLAVSLGERATINCKSSQSLLSGSFNYLTWYQQKPGQPPKLLIFYASTRHTGVPDRFSGSGSGTDFTLTISSLQAEDVAVYYCHHHYNAPPTFGPGTKVDIKR | 4 | 4 | –
M13 anti-ICOS detection antibody (antibody, V domains shown, also called 2M13; biotinylated M13 anti-ICOS detection antibody) VH: EVQLQQSGAELVRPGAVVKLSCKASGFDIKDYYMHWVQQRPEQGLEWIGWIDPENGNAVYDPQFQGKASITADTSSNTAYLQLSSLTSEDTAVYYCASDYYGSKGYLDVWGAGTTVTVSS VL: QIVLTQSPTIMSASPGEKVTITCSASSSVSYMHWFQQKPGTSPKLWIYSTSNLASGVPARFGGSRSGTSYSLTISRMEAEDAATYYCQQRSSYPFTFGSGTKLEIK | – | – | binds
